Patent US5493008A, “Two non-contiguous regions contribute to nidogen binding to a single EGF-like motif of the laminin γ1 chain” (The University Of Virginia Patent Foundation, priority 1994, dated 1996)
Where two headings read alike, the source gives them in different places. Where no end group is shown, it is not given here. The star is where a group is joined. Nle‑OMe = norleucine methyl ester coupled to carboxyl groups via carbodiimide, CCCC[C@H](N*)C(=O)OC; Succinimide(1-Et,3-yl) = CCN1C(=O)CC(*)C1=O

Columns and labels:
[1] = target: T1, recombinant nidogen (Mus musculus (Mouse), UniProt P10493); assay: radioligand competition assay: inhibitor varied, 0.2 nM recombinant nidogen, 125I-laminin fragment P1
T1 sequence: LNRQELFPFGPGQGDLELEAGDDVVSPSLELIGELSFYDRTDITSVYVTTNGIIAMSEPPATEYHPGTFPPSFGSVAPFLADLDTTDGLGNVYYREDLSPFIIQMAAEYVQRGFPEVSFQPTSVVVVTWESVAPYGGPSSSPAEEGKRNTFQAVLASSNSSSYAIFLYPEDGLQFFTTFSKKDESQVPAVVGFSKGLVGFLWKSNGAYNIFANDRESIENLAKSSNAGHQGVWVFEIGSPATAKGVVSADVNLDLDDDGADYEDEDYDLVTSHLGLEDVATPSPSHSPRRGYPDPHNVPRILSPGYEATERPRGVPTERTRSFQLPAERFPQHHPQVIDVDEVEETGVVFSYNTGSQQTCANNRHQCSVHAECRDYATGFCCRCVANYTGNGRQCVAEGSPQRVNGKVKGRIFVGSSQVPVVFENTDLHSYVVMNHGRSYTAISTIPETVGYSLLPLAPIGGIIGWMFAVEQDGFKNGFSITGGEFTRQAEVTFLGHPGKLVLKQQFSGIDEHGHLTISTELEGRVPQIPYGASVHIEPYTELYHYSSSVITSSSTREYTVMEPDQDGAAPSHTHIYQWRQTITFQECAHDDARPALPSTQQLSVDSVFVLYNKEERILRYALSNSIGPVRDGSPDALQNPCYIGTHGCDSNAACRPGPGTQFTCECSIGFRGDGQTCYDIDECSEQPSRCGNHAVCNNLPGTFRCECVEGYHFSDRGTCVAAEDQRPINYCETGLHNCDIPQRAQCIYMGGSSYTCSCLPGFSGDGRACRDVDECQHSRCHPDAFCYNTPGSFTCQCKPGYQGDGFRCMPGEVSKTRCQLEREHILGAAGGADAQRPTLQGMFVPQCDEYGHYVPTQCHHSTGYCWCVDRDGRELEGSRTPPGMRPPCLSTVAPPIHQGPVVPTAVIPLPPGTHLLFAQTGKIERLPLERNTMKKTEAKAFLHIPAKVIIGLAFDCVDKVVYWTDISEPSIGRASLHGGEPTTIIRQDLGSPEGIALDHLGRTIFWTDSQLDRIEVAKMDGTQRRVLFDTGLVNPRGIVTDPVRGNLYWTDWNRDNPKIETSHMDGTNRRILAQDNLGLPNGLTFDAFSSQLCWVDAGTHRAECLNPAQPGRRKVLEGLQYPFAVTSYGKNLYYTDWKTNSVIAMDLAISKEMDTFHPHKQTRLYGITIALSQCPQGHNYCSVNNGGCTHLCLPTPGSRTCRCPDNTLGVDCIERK
Protocol: (§1) A radioligand competition assay was used for measurement of relative binding affinities (Mann K. et al. (1988), Eur. J. Biochem., 178, 71–80; Fox, J. W. et al. (1991), EMBO J., 10, 3137–3146). A fixed concentration of recombinant nidogen (0.2 nM) was incubated overnight at 4° C. with inhibitors at varying concentrations, followed by the addition of ^125I-labeled laminin fragment P1 (0.01 nM; 10,000–20,000 c.p.m.) for the same incubation period. Bound and non-bound fragment P1 was then separated by antibodies against nidogen.

[2] = target: T1, recombinant nidogen; assay: radioligand competition assay, synthetic heptapeptide variant
Protocol: as §1

[3] = target: T1, recombinant nidogen; assay: radioligand competition assay: inhibitor varied, 0.2 nM recombinant nidogen, 125I-laminin fragment P1; remark: listed apart in the source
Protocol: as §1

[4] = target: T1, recombinant nidogen; assay: as above; remark: listed apart in the source
Protocol: as §1

[5] = target: T1, recombinant nidogen; assay: radioligand competition assay
Protocol: as §1

[6] = target: T2, nidogen (Mus musculus, UniProt P10493); assay: Radioligand competition assay: inhibition of 125I-laminin fragment P1 binding to nidogen
T2 sequence (P10493 29-1245): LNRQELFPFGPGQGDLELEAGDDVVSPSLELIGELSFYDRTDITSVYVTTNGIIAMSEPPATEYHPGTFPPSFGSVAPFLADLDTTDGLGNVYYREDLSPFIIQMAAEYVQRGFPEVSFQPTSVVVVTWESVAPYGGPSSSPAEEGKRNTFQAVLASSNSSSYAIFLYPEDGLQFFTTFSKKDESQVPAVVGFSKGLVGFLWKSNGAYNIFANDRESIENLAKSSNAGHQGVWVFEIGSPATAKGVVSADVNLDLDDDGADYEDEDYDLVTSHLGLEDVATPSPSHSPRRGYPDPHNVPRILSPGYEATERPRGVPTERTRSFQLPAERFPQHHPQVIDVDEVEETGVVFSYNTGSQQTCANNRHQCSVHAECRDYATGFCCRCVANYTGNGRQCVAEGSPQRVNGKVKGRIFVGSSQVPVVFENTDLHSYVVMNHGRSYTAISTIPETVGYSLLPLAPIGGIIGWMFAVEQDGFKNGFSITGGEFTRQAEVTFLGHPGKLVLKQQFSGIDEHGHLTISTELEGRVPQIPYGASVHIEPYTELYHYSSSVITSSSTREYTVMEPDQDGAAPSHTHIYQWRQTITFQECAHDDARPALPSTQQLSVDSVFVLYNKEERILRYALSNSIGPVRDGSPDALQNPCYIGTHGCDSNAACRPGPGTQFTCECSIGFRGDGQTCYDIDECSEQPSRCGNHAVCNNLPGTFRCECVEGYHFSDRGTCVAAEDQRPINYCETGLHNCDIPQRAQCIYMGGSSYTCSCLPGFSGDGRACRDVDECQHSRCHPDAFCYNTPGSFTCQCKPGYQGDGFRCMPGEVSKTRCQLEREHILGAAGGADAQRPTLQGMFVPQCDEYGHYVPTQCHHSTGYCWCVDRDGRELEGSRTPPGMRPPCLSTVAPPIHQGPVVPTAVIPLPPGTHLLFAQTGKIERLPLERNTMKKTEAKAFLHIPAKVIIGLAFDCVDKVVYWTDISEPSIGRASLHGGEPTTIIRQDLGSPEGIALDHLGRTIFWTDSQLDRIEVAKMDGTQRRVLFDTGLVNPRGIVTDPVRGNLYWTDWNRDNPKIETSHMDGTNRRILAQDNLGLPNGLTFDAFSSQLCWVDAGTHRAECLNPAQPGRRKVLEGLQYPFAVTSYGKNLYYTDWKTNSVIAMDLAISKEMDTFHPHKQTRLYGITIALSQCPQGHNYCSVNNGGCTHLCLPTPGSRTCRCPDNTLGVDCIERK
Protocol: as §1, with “71-80;” for “71–80;”, “3137-3146).” for “3137–3146).”, “^125 I-labeled” for “^125I-labeled”, “10,000-20,000” for “10,000–20,000”, “nidogen. Competitor concentrations causing 50% inhibition (IC50) were determined from dose-response profiles. […] IC50 values compared from different assays were normalized to a single fragment P1 value.” for “nidogen.”

AVGNCNR [Th1, 803-809]
binding result [1]: no binding (tested: >30,000 nM)

NVDPNAS
binding result [1]: no binding (tested: >160,000 nM)

NIDQNAV
fold decrease in activity against the heptapeptide NIDPNAV [2]: 3 fold | IC50 [3]: 2400 nM

PCQCNDNTDPNAVGNCNRLTGECL (disulfide (positions not given here)) [synthetic loop a,b, oxidized (792-815)]
IC50 [4]: 270 nM | IC50 [1]: 380 nM | fold higher IC50 than fragment P1 [5]: 5000 fold

NVDPSAS
binding result [1]: no binding (tested: >290,000 nM)

NVDPSAV
binding result [1]: no binding (tested: >180,000 nM)

B1: γ1III3-5Δ4: recombinant deletion mutant joining repeats 3 and 5, lacking EGF-like repeat 4 (protein)
chain: PCPCPGGSSCAIVPKTKEVVCTHCPTGTAGKRCELCDDGYFGDPLGSNGPVRLCRACACNPYGTVQQQSSCNPVTGQCQCLPHVSGRDCGTCDPGYYNLQSGQGCE
IC50 ([6]; Table IV, recombinant mutants and chimeric structures of γ1III4, read-out: IC50 (inhibitory activity for laminin-nidogen binding)): > 3200 nM | inhibitory activity in words ([6]; laminin-nidogen binding competition): without measurable activity

B2: γ1III4ab3cd, reduced (other)
chain: PC(Succinimide(1-Et,3-yl))QC(Succinimide(1-Et,3-yl))NDNIDPNAVGNC(Succinimide(1-Et,3-yl))NRLTGEC(Succinimide(1-Et,3-yl))LKC(Succinimide(1-Et,3-yl))PTGTAGKRC(Succinimide(1-Et,3-yl))ELC(Succinimide(1-Et,3-yl))DDGYFGDPLGSNGPVRLC(Succinimide(1-Et,3-yl))R
IC50 [4]: 520 nM

NIDPNVV
fold decrease in activity against the heptapeptide NIDPNAV [2]: 16 fold | IC50 [3]: 16000 nM

B3: γ1III3-5, Lys acetylation (other)
chain: PCPCPGGSSCAIVPKTKEVVCTHCPTGTAGKRCELCDDGYFGDPLGSNGPVRLCRPCQCNDNIDPNAVGNCNRLTGECLKCIYNTAGFYCDRCKEGFFGNPLAPNPADKCKACACNPYGTVQQQSSCNPVTGQCQCLPHVSGRDCGTCDPGYYNLQSGQGCE
modifications: lysine amino groups acetylated with acetic acid anhydride
IC50 [1]: 0.27 nM | fold decrease in binding activity against unmodified γ1III3-5 [5]: 7 fold

B4: recombinant fragment γ1III3-5 (other)
chain: PCPCPGGSSCAIVPKTKEVVCTHCPTGTAGKRCELCDDGYFGDPLGSNGPVRLCRPCQCNDNIDPNAVGNCNRLTGECLKCIYNTAGFYCDRCKEGFFGNPLAPNPADKCKACACNPYGTVQQQSSCNPVTGQCQCLPHVSGRDCGTCDPGYYNLQSGQGCE
IC50 [1]: 0.04 nM

B5: γ1III3-5, Asp/Glu amidation (other)
chain: PCPCPGGSSCAIVPKTKEVVCTHCPTGTAGKRCELCDDGYFGDPLGSNGPVRLCRPCQCNDNIDPNAVGNCNRLTGECLKCIYNTAGFYCDRCKEGFFGNPLAPNPADKCKACACNPYGTVQQQSSCNPVTGQCQCLPHVSGRDCGTCDPGYYNLQSGQGCE
modifications: carboxyl groups (Asp, Glu) activated with 1-ethyl-3-dimethylaminopropylcarbodiimide and blocked by norleucine methylester
IC50 [1]: 2.1 nM

NIDPNA [NIDPNA (S, 798-803)]
binding result [1]: no binding (tested: >460,000 nM)

NVDPNAV
IC50 [3]: 1200 nM

B6: synthetic loop a,b, amidated (792-815) (peptide)
peptide: PCQCND(Nle‑OMe)NTD(Nle‑OMe)PNAVGNCNRLTGE(Nle‑OMe)CL
modifications: not fully specified; cysteine pairing not given here; also: carboxyl groups of Asp and Glu blocked with norleucine methyl ester (amidation), sites not placed
IC50 [1]: > 5400 nM
